Assays:
human CLDN5 = molecular target: T1, human CLDN5 (human, UniProt O00501 1-218); assay: flow cytometry on transfected cells
T1 construct: whole, on cells
T1 sequence (looked up): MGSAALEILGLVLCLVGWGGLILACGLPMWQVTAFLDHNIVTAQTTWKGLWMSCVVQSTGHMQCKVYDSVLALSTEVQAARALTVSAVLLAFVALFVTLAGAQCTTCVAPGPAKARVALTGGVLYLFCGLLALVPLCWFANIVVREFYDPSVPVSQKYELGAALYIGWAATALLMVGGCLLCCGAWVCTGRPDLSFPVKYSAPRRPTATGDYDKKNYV

human CLDN8 = molecular target: T2, human CLDN8 (human, UniProt P56748 1-225); assay: flow cytometry on transfected cells
T2 construct: whole, on cells
T2 sequence (looked up): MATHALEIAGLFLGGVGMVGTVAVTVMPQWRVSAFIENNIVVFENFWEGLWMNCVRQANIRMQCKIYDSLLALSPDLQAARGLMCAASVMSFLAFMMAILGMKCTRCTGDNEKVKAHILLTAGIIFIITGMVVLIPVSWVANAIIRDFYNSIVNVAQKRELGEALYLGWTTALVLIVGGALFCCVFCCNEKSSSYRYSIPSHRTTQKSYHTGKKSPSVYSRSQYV

human CLDN17 = molecular target: T3, human CLDN17 (human, UniProt P56750 1-224); assay: flow cytometry on transfected cells
T3 construct: whole, on cells
T3 sequence (looked up): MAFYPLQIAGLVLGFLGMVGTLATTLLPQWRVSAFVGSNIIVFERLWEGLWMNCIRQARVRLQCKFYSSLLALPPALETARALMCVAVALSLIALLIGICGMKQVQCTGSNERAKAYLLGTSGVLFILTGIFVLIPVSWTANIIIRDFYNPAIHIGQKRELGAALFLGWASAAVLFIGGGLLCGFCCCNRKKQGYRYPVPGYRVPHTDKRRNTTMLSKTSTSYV

human CLDN6 = molecular target: T4, human CLDN6 (human, UniProt P56747 1-220); assay: flow cytometry on transfected HEK293E cells
T4 construct: also called Claudin 6
T4 sequence: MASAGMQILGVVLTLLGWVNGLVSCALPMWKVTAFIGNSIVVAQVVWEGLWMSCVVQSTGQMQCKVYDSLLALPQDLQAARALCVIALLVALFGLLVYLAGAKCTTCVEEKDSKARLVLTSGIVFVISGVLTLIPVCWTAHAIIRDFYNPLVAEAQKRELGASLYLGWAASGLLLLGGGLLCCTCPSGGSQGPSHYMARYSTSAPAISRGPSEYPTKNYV
Experimental: (§1) The following experiments used to screen CLDN6 binding domains were generally performed as follows. HEK293T or HEK293E cells were respectively stably or transiently transfected to express CLDN6, CLND9, or other targets of interest. 48 hours post transfection, cells were harvested and incubated with dilutions of the indicated test articles for 1 hour at 4° C. […] Binding was then assessed via flow cytometry.

CLDN6 I143V isotype = molecular target: T5, CLDN6 I143V isotype (human, UniProt P56747 1-220); assay: flow cytometry on transfected HEK293E cells
T5 chain: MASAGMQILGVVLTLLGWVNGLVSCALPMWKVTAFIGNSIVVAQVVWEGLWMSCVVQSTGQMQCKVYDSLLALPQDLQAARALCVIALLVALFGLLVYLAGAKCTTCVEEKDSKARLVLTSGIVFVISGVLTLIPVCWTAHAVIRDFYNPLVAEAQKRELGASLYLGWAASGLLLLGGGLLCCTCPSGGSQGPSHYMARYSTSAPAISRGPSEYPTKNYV
Experimental: as §1

mouse CLDN6 = molecular target: T6, mouse CLDN6 (mouse, UniProt Q9Z262 1-219); assay: flow cytometry on transfected HEK293E cells
T6 construct: whole, on cells; also called murine CLDN6
T6 sequence (looked up): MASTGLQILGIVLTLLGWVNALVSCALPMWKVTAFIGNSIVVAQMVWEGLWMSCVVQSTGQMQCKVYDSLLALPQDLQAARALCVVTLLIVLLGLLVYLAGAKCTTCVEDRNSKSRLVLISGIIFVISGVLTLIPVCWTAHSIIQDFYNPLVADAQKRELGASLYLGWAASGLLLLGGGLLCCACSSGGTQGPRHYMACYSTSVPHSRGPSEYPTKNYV
Experimental: as §1

| binding result (human CLDN5) | binding result (human CLDN8) | binding result (human CLDN17) | binding result (human CLDN6) | binding result (CLDN6 I143V isotype) | binding result (mouse CLDN6) | Binder |
| --- | --- | --- | --- | --- | --- | --- |
| no binding | no binding | no binding | binds | binds | binds | XENP34233 (C6-30_H1L1 x CD3 bsAb in the 2+1 Fab2-scFv-Fc format) (bispecific antibody, copies: 1 + 1 + 2) heavy 1: QVQLVQSGAEVKKPGASVKVSCKTSGYTFTEYTMHWVRQAPGQSLEWMGGIDPNNGNTHYNQKFQGRVTITVDKSASTAYMELSSLRSEDTAVYYCARIYYFGRLYFDFWGAGTLVTVSSASTKGPSVFPLAPSSKSTSGGTAALGCLVKDYFPEPVTVSWNSGALTSGVHTFPAVLQSSGLYSLSSVVTVPSSSLGTQTYICNVNHKPSDTKVDKKVEPKSCDKTHTCPPCPAPPVAGPSVFLFPPKPKDTLMISRTPEVTCVVVDVKHEDPEVKFNWYVDGVEVHNAKTKPREEEYNSTYRVVSVLTVLHQDWLNGKEYKCKVSNKALPAPIEKTISKAKGQPREPQVYTLPPSREEMTKNQVSLTCDVSGFYPSDIAVEWESDGQPENNYKTTPPVLDSDGSFFLYSKLTVDKSRWEQGDVFSCSVMHEALHNHYTQKSLSLSPGK heavy 2: QVQLVQSGAEVKKPGASVKVSCKTSGYTFTEYTMHWVRQAPGQSLEWMGGIDPNNGNTHYNQKFQGRVTITVDKSASTAYMELSSLRSEDTAVYYCARIYYFGRLYFDFWGAGTLVTVSSASTKGPSVFPLAPSSKSTSGGTAALGCLVKDYFPEPVTVSWNSGALTSGVHTFPAVLQSSGLYSLSSVVTVPSSSLGTQTYICNVNHKPSNTKVDKKVEPKSCGGGGSGGGGSQAVVTQEPSLTVSPGGTVTLTCGSSTGAVTTSNYANWVQQKPGKSPRGLIGGTNKRAPGVPARFSGSLLGGKAALTISGAQPEDEADYYCALWYSNHWVFGGGTKLTVLGKPGSGKPGSGKPGSGKPGSEVQLVESGGGLVQPGGSLRLSCAASGFTFSTYAMNWVRQAPGKGLEWVGRIRSKYNNYATYYADSVKGRFTISRDDSKNTLYLQMNSLRAEDTAVYYCVRHGNFGDSYVSWFAYWGQGTLVTVSSGGGGSGGGGSKTHTCPPCPAPPVAGPSVFLFPPKPKDTLMISRTPEVTCVVVDVKHEDPEVKFNWYVDGVEVHNAKTKPREEQYNSTYRVVSVLTVLHQDWLNGKEYKCKVSNKALPAPIEKTISKAKGQPREPQVYTLPPSREQMTKNQVKLTCLVKGFYPSDIAVEWESNGQPENNYKTTPPVLDSDGSFFLYSKLTVDKSRWQQGNVFSCSVMHEALHNHYTQKSLSLSPGK light: not shown |
| no binding | no binding | no binding | binds | binds | binds | XENP34638 (C6-30_H2L1 x CD3 bsAb in the 2+1 Fab2-scFv-Fc format) (bispecific antibody, copies: 1 + 1 + 2) heavy 1: EVQLVQSGAEVKKPGESLRISCKTSGYTFTEYTMHWVRQMPGKSLEWMGGIDPNNGNTHYNQKFQGHVTISVDKSISTAYLQWSSLKASDTAMYYCARIYYFGRLYFDFWGAGTLVTVSSASTKGPSVFPLAPSSKSTSGGTAALGCLVKDYFPEPVTVSWNSGALTSGVHTFPAVLQSSGLYSLSSVVTVPSSSLGTQTYICNVNHKPSDTKVDKKVEPKSCDKTHTCPPCPAPPVAGPSVFLFPPKPKDTLMISRTPEVTCVVVDVKHEDPEVKFNWYVDGVEVHNAKTKPREEEYNSTYRVVSVLTVLHQDWLNGKEYKCKVSNKALPAPIEKTISKAKGQPREPQVYTLPPSREEMTKNQVSLTCDVSGFYPSDIAVEWESDGQPENNYKTTPPVLDSDGSFFLYSKLTVDKSRWEQGDVFSCSVMHEALHNHYTQKSLSLSPGK heavy 2: EVQLVQSGAEVKKPGESLRISCKTSGYTFTEYTMHWVRQMPGKSLEWMGGIDPNNGNTHYNQKFQGHVTISVDKSISTAYLQWSSLKASDTAMYYCARIYYFGRLYFDFWGAGTLVTVSSASTKGPSVFPLAPSSKSTSGGTAALGCLVKDYFPEPVTVSWNSGALTSGVHTFPAVLQSSGLYSLSSVVTVPSSSLGTQTYICNVNHKPSNTKVDKKVEPKSCGGGGSGGGGSQAVVTQEPSLTVSPGGTVTLTCGSSTGAVTTSNYANWVQQKPGKSPRGLIGGTNKRAPGVPARFSGSLLGGKAALTISGAQPEDEADYYCALWYSNHWVFGGGTKLTVLGKPGSGKPGSGKPGSGKPGSEVQLVESGGGLVQPGGSLRLSCAASGFTFSTYAMNWVRQAPGKGLEWVGRIRSKYNNYATYYADSVKGRFTISRDDSKNTLYLQMNSLRAEDTAVYYCVRHGNFGDSYVSWFAYWGQGTLVTVSSGGGGSGGGGSKTHTCPPCPAPPVAGPSVFLFPPKPKDTLMISRTPEVTCVVVDVKHEDPEVKFNWYVDGVEVHNAKTKPREEQYNSTYRVVSVLTVLHQDWLNGKEYKCKVSNKALPAPIEKTISKAKGQPREPQVYTLPPSREQMTKNQVKLTCLVKGFYPSDIAVEWESNGQPENNYKTTPPVLDSDGSFFLYSKLTVDKSRWQQGNVFSCSVMHEALHNHYTQKSLSLSPGK light: not shown |
| no binding | no binding | no binding | binds | binds | binds | XENP34229 (C6-30_H1L1 x CD3 bsAb in the 1+1 Fab-scFv-Fc format) (bispecific antibody, copies: 1 + 1 + 1) heavy: QVQLVQSGAEVKKPGASVKVSCKTSGYTFTEYTMHWVRQAPGQSLEWMGGIDPNNGNTHYNQKFQGRVTITVDKSASTAYMELSSLRSEDTAVYYCARIYYFGRLYFDFWGAGTLVTVSSASTKGPSVFPLAPSSKSTSGGTAALGCLVKDYFPEPVTVSWNSGALTSGVHTFPAVLQSSGLYSLSSVVTVPSSSLGTQTYICNVNHKPSDTKVDKKVEPKSCDKTHTCPPCPAPPVAGPSVFLFPPKPKDTLMISRTPEVTCVVVDVKHEDPEVKFNWYVDGVEVHNAKTKPREEEYNSTYRVVSVLTVLHQDWLNGKEYKCKVSNKALPAPIEKTISKAKGQPREPQVYTLPPSREEMTKNQVSLTCDVSGFYPSDIAVEWESDGQPENNYKTTPPVLDSDGSFFLYSKLTVDKSRWEQGDVFSCSVMHEALHNHYTQKSLSLSPGK scFv-Fc: QAVVTQEPSLTVSPGGTVTLTCGSSTGAVTTSNYANWVQQKPGKSPRGLIGGTNKRAPGVPARFSGSLLGGKAALTISGAQPEDEADYYCALWYSNHWVFGGGTKLTVLGKPGSGKPGSGKPGSGKPGSEVQLVESGGGLVQPGGSLRLSCAASGFTFSTYAMNWVRQAPGKGLEWVGRIRSKYNNYATYYADSVKGRFTISRDDSKNTLYLQMNSLRAEDTAVYYCVRHGNFGDSYVSWFAYWGQGTLVTVSSEPKSSDKTHTCPPCPAPPVAGPSVFLFPPKPKDTLMISRTPEVTCVVVDVKHEDPEVKFNWYVDGVEVHNAKTKPREEQYNSTYRVVSVLTVLHQDWLNGKEYKCKVSNKALPAPIEKTISKAKGQPREPQVYTLPPSREQMTKNQVKLTCLVKGFYPSDIAVEWESNGQPENNYKTTPPVLDSDGSFFLYSKLTVDKSRWQQGNVFSCSVMHEALHNHYTQKSLSLSPGK light: not shown |
| no binding | no binding | no binding | binds | binds | binds | XENP34637 (C6-30_H2L1 x CD3 bsAb in the 1+1 Fab-scFv-Fc format) (bispecific antibody, copies: 1 + 1 + 1) heavy: EVQLVQSGAEVKKPGESLRISCKTSGYTFTEYTMHWVRQMPGKSLEWMGGIDPNNGNTHYNQKFQGHVTISVDKSISTAYLQWSSLKASDTAMYYCARIYYFGRLYFDFWGAGTLVTVSSASTKGPSVFPLAPSSKSTSGGTAALGCLVKDYFPEPVTVSWNSGALTSGVHTFPAVLQSSGLYSLSSVVTVPSSSLGTQTYICNVNHKPSDTKVDKKVEPKSCDKTHTCPPCPAPPVAGPSVFLFPPKPKDTLMISRTPEVTCVVVDVKHEDPEVKFNWYVDGVEVHNAKTKPREEEYNSTYRVVSVLTVLHQDWLNGKEYKCKVSNKALPAPIEKTISKAKGQPREPQVYTLPPSREEMTKNQVSLTCDVSGFYPSDIAVEWESDGQPENNYKTTPPVLDSDGSFFLYSKLTVDKSRWEQGDVFSCSVMHEALHNHYTQKSLSLSPGK scFv-Fc: not shown light: not shown |

— patent US20240400675A1 (published 2024)
